The numbers were not newly measured in paper PMC5951583, which cites them from elsewhere.

Read-outs that look alike come from different tables or passages of the source.

For orientation: Kd means a measure of binding affinity in units of concentration.

Series [1] addresses Synaptotagmin-2 (Rattus norvegicus) (UniProt P29101).
For series [2], the target named is Syt-II (Rattus norvegicus) (UniProt P29101).
Series [3] deals with Synaptotagmin-2 (Rattus norvegicus) (UniProt P29101). Description: SPR. (In general: SPR reads the build-up and loss of mass on a sensor chip optically.)
In series [4] the target is Syt-II luminal domain (Rattus norvegicus) (UniProt P29101). Description: ITC.
For series [5], the target named is Synaptotagmin-2 (Rattus norvegicus) (UniProt P29101). The source holds these as a separate data set.
For series [6] the target is unchanged. Nature of the series: ITC. For orientation: ITC needs no label: the signal is the heat of the interaction.

For BoNT/B (from UniProt P10844), the figures for the Kd in series [1], in series [2] and in series [3] were 0.23 nM, 7 nM and 0.6 nM, respectively.

Take “BoNT/B HC (HCB) HC (from UniProt P10844)”: the Kd in series [4] is 34 nM.

Regarding BoNT/B HC HC (from UniProt P10844), the Kd in series [5] is 7 nM; in series [6], 34 nM.
